Assay results taken from article PMC1802081.

What was measured:
Experiment in all cases: SPR; BIACORE 2000; biotinylated ligand on a streptavidin-modified CM5 chip (about 200 RU); receptor ectodomain as analyte at 1, 2, 3, 5, 10, 20 and 50 uM; HBS500 (10 mM HEPES pH 7.4, 500 mM NaCl, 3.4 mM EDTA, 0.005% P20); apparent KD from the dose dependence of equilibrium binding
[1] = target: BMP-2 A86P
[2] = target: BMP-2 L100K
[3] = target: BMP-2 N102D
[4] = target: BMP-2 S85R/A86P
[5] = target: BMP-2 S85R
[6] = target: BMP-2 variant L100K/N102D

| Binder | rel. KD (against wildtype BMP-2 from E. coli with the same receptor) [1] | rel. KD (against wildtype BMP-2 from E. coli with the same receptor) [2] | rel. KD (against wildtype BMP-2 from E. coli with the same receptor) [3] | rel. KD (against wildtype BMP-2 from E. coli with the same receptor) [4] | rel. KD (against wildtype BMP-2 from E. coli with the same receptor) [5] | Kd [6] | rel. KD (against wildtype BMP-2 from E. coli with the same receptor) [6] |
| --- | --- | --- | --- | --- | --- | --- | --- |
| ActR-IIBECD wildtype (activin type IIB receptor ectodomain) (receptor) SGRGEAETRECIYYNANWELERTNQSGLERCEGEQDKRLHCYASWRNSSGTIELVKKGCWLDDFNCYDRQECVATEENPQVYFCCCEGNFCNERFTHLPEPGGPEVTYEPPPTAPTLLT | 2.6 fold | 0.15 fold | 7.8 fold | 1.4 fold | 1.3 fold | 0.14 µM |  |
| BMPR-II receptor ectodomain (receptor) SQNQERLCAFKDPYQQDLGIGESRISHENGTILCSKGSTCYGLWEKSKGDINLVKQGCWSHIGDPQECHYEECVVTTTPPSIQNGTYRFCCCSTDLCNVNFTENFPPPDTTPLSPPHSFNRDET | 0.5 fold | 1.3 fold | 0.96 fold | 0.19 fold | 0.12 fold |  | 0.92 fold |

Further lines, results first:

| rel. KD (against wildtype BMP-2 from E. coli with the same receptor) [1] | rel. KD (against wildtype BMP-2 from E. coli with the same receptor) [2] | rel. KD (against wildtype BMP-2 from E. coli with the same receptor) [3] | rel. KD (against wildtype BMP-2 from E. coli with the same receptor) [4] | rel. KD (against wildtype BMP-2 from E. coli with the same receptor) [5] | Kd [6] | rel. KD (against wildtype BMP-2 from E. coli with the same receptor) [6] | Binder |
| --- | --- | --- | --- | --- | --- | --- | --- |
|  |  |  |  |  | 160 µM |  | ActR-IIBECD L61P (receptor) SGRGEAETRECIYYNANWELERTNQSGLERCEGEQDKRLHCYASWRNSSGTIELVKKGCWPDDFNCYDRQECVATEENPQVYFCCCEGNFCNERFTHLPEPGGPEVTYEPPPTAPTLLT |
|  |  |  |  |  | 14 µM |  | ActR-IIBECD L61A (receptor) SGRGEAETRECIYYNANWELERTNQSGLERCEGEQDKRLHCYASWRNSSGTIELVKKGCWADDFNCYDRQECVATEENPQVYFCCCEGNFCNERFTHLPEPGGPEVTYEPPPTAPTLLT |
